The numbers were not newly measured in publication PMC4845744, which cites them from elsewhere.

In general, Kd refers to the equilibrium constant for the complex coming apart.

This data set has as its target MutLα (Homo sapiens) (UniProt P40692).

Sequence of MutLα (Homo sapiens) (P40692 2-756, chain 1 of 2): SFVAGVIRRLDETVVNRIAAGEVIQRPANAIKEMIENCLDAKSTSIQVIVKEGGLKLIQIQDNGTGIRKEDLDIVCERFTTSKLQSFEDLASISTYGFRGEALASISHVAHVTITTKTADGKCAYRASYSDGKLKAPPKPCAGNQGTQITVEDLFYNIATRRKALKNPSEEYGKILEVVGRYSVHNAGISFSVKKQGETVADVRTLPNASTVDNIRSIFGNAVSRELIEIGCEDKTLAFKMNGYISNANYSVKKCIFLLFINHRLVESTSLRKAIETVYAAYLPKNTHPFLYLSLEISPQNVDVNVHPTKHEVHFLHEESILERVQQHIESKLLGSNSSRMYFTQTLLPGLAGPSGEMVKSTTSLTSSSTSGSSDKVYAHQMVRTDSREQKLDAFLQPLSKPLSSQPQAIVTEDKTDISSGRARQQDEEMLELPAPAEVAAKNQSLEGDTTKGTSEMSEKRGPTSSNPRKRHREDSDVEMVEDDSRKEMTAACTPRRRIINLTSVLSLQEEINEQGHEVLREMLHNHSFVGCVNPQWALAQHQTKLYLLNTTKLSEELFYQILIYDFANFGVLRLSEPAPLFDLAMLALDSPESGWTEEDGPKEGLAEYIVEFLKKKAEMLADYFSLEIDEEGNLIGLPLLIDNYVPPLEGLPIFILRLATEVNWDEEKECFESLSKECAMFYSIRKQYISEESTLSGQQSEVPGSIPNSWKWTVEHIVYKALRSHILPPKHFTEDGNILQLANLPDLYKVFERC
Sequence of MutLα (Homo sapiens) (P54278 whole entry, chain 2 of 2, further chain): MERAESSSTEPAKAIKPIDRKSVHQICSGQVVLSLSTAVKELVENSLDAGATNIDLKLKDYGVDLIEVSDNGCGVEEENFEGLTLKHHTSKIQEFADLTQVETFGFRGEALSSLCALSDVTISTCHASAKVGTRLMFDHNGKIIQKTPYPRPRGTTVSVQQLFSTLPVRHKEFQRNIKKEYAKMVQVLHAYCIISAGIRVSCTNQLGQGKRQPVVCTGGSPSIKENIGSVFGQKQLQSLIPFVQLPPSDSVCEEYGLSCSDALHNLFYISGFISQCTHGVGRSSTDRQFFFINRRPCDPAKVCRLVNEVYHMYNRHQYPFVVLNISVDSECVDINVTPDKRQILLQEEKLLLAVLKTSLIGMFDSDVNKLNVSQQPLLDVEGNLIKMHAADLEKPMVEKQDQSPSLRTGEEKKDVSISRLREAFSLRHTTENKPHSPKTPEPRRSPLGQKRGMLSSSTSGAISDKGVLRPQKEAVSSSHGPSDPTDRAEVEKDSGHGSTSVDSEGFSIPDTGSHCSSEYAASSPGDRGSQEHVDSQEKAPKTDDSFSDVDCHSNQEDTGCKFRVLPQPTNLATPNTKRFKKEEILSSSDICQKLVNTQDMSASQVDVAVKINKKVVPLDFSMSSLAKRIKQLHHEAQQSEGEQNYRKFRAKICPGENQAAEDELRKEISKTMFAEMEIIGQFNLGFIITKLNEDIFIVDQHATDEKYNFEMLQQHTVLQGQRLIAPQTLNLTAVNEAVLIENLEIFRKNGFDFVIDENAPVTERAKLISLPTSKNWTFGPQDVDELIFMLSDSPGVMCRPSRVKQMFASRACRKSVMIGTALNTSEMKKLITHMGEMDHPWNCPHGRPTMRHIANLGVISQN

Regarding MutSβ (from UniProt P43246), the dissociation constant (Kd) is 0.25 µM.
